Test results: US20260055398A1, “IMPROVED POLYMER DEGRADING ENZYMES” (CAMBRIDGE ENTERPRISE LIMITED, priority 2022, published 2026)

Tests used:
[1] = Enzymatic degradation of PET (nanoparticles, film), HPLC of released TPA and MHET; format: biochemical
Text: (A) Sequence network of currently known PETases and a novel esterase metagenomic-derived, RR11O2. […] Grey nodes represent sequences extracted from MGnify and NCBI. Red node represents RR11O2, blue nodes represent known PETases, green and orange nodes represent reported cutinases and esterases showing PET activity, respectively, and light blue nodes represent described polyester degrading enzymes in the literature. To putatively characterise sequence clusters, the identification of PETases, cutinases, esterases and RR11O2 in the network helped to define the potential clusters. The cluster of RR11O2, CI5En2 and PETase are written in grey. (B) PET hydrolases catalyze the depolymerization of poly(ethylene terephthalate) (PET) to bis(2-hydroxyethyl) terephthalate (BHET), mono(2-hydroxyethyl)-terephthalic (MHET) or terephthalic acid (TPA) and ethylene glycol (EG). During characterizations via high-performance liquid chromatography (HPLC) MHET and TPA have been identified as main products. […] Absorbance at 250 nm was monitored.
(A) Enrichment of variants with higher activity compared to wildtype after sorting the ep-PCR library of CI5En2. […] Amount of the released monomers TPA and MHET was determined via HPLC and corresponding standard curves for TPA and MHET. […]
HPLC analysis of the products released after one week incubation at 30° C. using 6 μM pExp-bla-CI5En2-WT. Absorbance at 250 nm was monitored which detects released TPA and MHET.
To detect the release of TPA, MHET and BHET in the presence of various enzymes, aliquots were taken from reaction mixtures, turnover was stopped by addition of an equal volume of methanol containing 0.5% formic acid, centrifuged (16,100×g, 15 min) and analysed by HPLC (1260 Infinity II, Agilent; Nucleodur C18 analytical EC standard column (5 μm, 4×125 mm, Macherey-Nagel, Germany). As the mobile phase mixtures of buffer A (0.1% formic acid in distilled water) and buffer C (distilled water), as well as buffer D (acetonitrile) were used at a flow rate of 1 mL/min. Buffer A was kept at 20% for the whole run. […]

[2] = Light scattering of microdroplets with enzyme and PET nanoparticles; format: biochemical; conditions: 600 nM enzyme co-encapsulated with PET nanoparticles, versus buffer control
Protocol: (A) As described in FIG. 1, for the screening of metagenomic libraries for esterase activity isolated environmental DNA (eDNA) was cloned into plasmids. After the transformation of bacterial cells, single ones were co-encapsulated in microdroplets with lysis agent and the fluorescein dihexanoate substrate. After an off-chip incubation, the droplets were reinjected into the FADS sorting device and positive hits selected. After DNA recovery the re-screening and sequencing lead to a novel esterase showing promiscuous activity on PET. This enzyme was used to generate a sequence network together with known PETases. CI5En2 was identified in of the clusters as a novel PET hydrolase. This enzyme was subjected to a directed evolution campaign. Single bacterial cells were encapsulated in microdroplets together with lysis agent and PET nanoparticles serving as the substrate of the assay. Droplets were incubated in droplet chambers and reinjected into the sorting module. The SADS module relies on fiber optics integrated into a chip at a 90° angle. Schematic picture showing the main principle of the assay. […] The dielectrophoretic sorting of “positive” droplets is triggered when the measured value is within a user-defined threshold. (C) Histogram of the detected light scattering for co-encapsulated CI5En2 (600 nM) or a buffer control and PET nanoparticles. […]

B1: CI5En2: novel PET hydrolase identified from a sequence network cluster; amino acid SEQ ID NO. 2 (protein)
chain: MADYAKGPAPTVALLTAPAGPYQTATYKIAAADAKAFNYGGATVHYPVAKAPGETFGVVVMVPGFLAFQAVYDWLVSRVASHGFVVVNMDTVGRGDYPDERAEQAAGALRHVVSLAQAGTAPYAPVADTSRRAVMGNSMGGGASLSAAVVDPTLKAVVALQPWHTTKSFTGVASPTLVVACEKDSIAPNKSHSDVFYNSLSAALPRAEIEMRGAGHLCATFLATAAQKTTMAKSSVAWLKRFLDNDMRYDAMVKGGIDQGEFSRFVV
modifications: C15EN2
- activity against PET nanoparticles with different crystallinity ([1]; amorphous and crystalline PET NPs): showed activity
- PET degrading activity compared with IsPETase and LCC ([1]; at 30° C.): activity comparable to IsPETase and higher than LCC
- detected light scattering signal of droplets [2]: decreases over time
